Here are results for 36 molecules from patent US20040235726A1, “Glucagon-like peptides (glp-1) and treatment of respiratory distress” (priority 2001, published 2004).

Where no end group is shown, it is not given here.

This assay has as its target human GLP-1 receptor (human, UniProt P43220 24-463). Description: cell-based or functional assay.
Regarding HVEGTYTSDYSSYLEGQAAKEFIAWLVKGRG-OH [Val^8-Tyr^12-Tyr^16-GLP-1 (7-37) OH], the “GLP-1 receptor activation relative to Val^8-GLP-1 (7-37) OH” value is 1.5 relative to Val^8-GLP-1 (7-37) OH. Regarding HVEGTWTSDVSSYLEEQAAKEFIAWLVKGRG-OH [Val^8-Trp^12-Glu^22-GLP-1 (7-37) OH], the “GLP-1 receptor activation relative to Val^8-GLP-1 (7-37) OH” value is 1.7 relative to Val^8-GLP-1 (7-37) OH.

For the molecule HVEGTFTSDISSYLEEQAAKEFIAWLVKGRG-OH [Val^8-Ile^16-Glu^22-GLP-1 (7-37) OH], the “GLP-1 receptor activation relative to Val^8-GLP-1 (7-37) OH” value was 3.3 relative to Val^8-GLP-1 (7-37) OH.

As to HVEGTFTSDVSSYFEEQAAKEFIAWLVKGRG-OH [Val^8-Phe^20-Glu^22-GLP-1 (7-37) OH], the “GLP-1 receptor activation relative to Val^8-GLP-1 (7-37) OH” value is 2.7 relative to Val^8-GLP-1 (7-37) OH.

HVEGTYTSDVSSYLEEQAAKEFIAWLVKGRG-OH [Val^8-Tyr^12-Glu^22-GLP-1 (7-37) OH]: the “GLP-1 receptor activation relative to Val^8-GLP-1 (7-37) OH” value was 2.7 relative to Val^8-GLP-1 (7-37) OH. For HVEGTWTSDVSSYLEGQAAKEFIAWLVKGRG-OH [Val^8-Trp^12-GLP-1 (7-37) OH], the “GLP-1 receptor activation relative to Val^8-GLP-1 (7-37) OH” value is 1.1 relative to Val^8-GLP-1 (7-37) OH.

For the molecule HVEGTFTSDVSSYLEEQAAKEFIAWLVKGRH-OH [Val^8-Glu^22-His^37-GLP-1 (7-37) OH], the “GLP-1 receptor activation relative to Val^8-GLP-1 (7-37) OH” value was 4.7 relative to Val^8-GLP-1 (7-37) OH. Turning to HVEGTFTSDVSFYLEEQAAKEFIAWLVKGRG-OH [Val^8-Phe^18-Glu^22-GLP-1 (7-37) OH], the “GLP-1 receptor activation relative to Val^8-GLP-1 (7-37) OH” value is 2 relative to Val^8-GLP-1 (7-37) OH. Take HVEGTFTSDVSSYLEGQALKEFIAWLVKGRG-OH [Val^8-Leu^25-GLP-1 (7-37) OH]: the “GLP-1 receptor activation relative to Val^8-GLP-1 (7-37) OH” value was 0.5 relative to Val^8-GLP-1 (7-37) OH. For HVEGTFTSDWSSYLEEQAVKEFIAWLVKGRG-OH [Val^8-Trp^16-Glu^22-Val^25-GLP-1 (7-37) OH] the value was 4.4 relative to Val^8-GLP-1 (7-37) OH; for HVEGTYTSDVSSYLEGQAAKEFIAWLVKGR-NH2 [Val^8-Tyr^12-GLP-1 (7-36) NH2], 1.1 relative to Val^8-GLP-1 (7-37) OH. For HVEGTFTSDWSSYLEEQAAKEFIAWLIKGRG-OH [Val^8-Trp^16-Glu^22-Ile^33-GLP-1 (7-37) OH] the value was 4.1 relative to Val^8-GLP-1 (7-37) OH; for HAEGTFTSDVSSYLEQQAAKEFIAWLVKGRG-OH [Gln^22-GLP-1 (7-37) OH], 0.9 relative to Val^8-GLP-1 (7-37) OH. For HVEGTFTSDVSSYLEAQAAKEFIAWLVKGRG-OH [Val^8-Ala^22-GLP-1 (7-37) OH], the “GLP-1 receptor activation relative to Val^8-GLP-1 (7-37) OH” value was 1.2 relative to Val^8-GLP-1 (7-37) OH. For HVEGTFTSDYSSFLEGQAAKEFIAWLVKGRG-OH [Val^8-Tyr^16-Phe^19-GLP-1 (7-37) OH] the value was 2.8 relative to Val^8-GLP-1 (7-37) OH; for HVEGTFTSDVSSYLEEQAAKEFIAWLVKGRG-OH [Val^8-Glu^22-GLP-1 (7-37) OH], 2.9 relative to Val^8-GLP-1 (7-37) OH; for HVEGTFTSDVSSFLEEQAAKEFIAWLVKGRG-OH [Val^8-Phe^19-Glu^22-GLP-1 (7-37) OH], 1.5 relative to Val^8-GLP-1 (7-37) OH.

On to HVEGTFTSDYSSWLEEQAAKEFIAWLVKGRG-OH [Val^8-Tyr^16-Trp^19-Glu^22-GLP-1 (7-37) OH], for which the “GLP-1 receptor activation relative to Val^8-GLP-1 (7-37) OH” value is 3.5 relative to Val^8-GLP-1 (7-37) OH. For HVEGTFTSDVSSYLEEQAAKIFIAWLVKGRG-OH [Val^8-Glu^22-Ile^27-GLP-1 (7-37) OH] the value was 2 relative to Val^8-GLP-1 (7-37) OH; for HVEGTFTSDVSSYLESQAAKEFIAWLVKGRG-OH [Val^8-Ser^22-GLP-1 (7-37) OH], 1.1 relative to Val^8-GLP-1 (7-37) OH.

Consider HVEGTFTSDVSIYLEEQAAKEFIAWLVKGRG-OH [Val^8-Ile^18-Glu^22-GLP-1 (7-37) OH], for which the “GLP-1 receptor activation relative to Val^8-GLP-1 (7-37) OH” value is 4 relative to Val^8-GLP-1 (7-37) OH. In the case of HGEGHFTSDVSSYLEGQAAKEFIAWLVKGRG-OH [Gly^8-His^11-GLP-1 (7-37) OH] it was 0.6 relative to Val^8-GLP-1 (7-37) OH; in that of HVDGIFTSDYSSYLEEQAAKEFIAWLVKGRG-OH [Val^8-Asp^9-Ile^11-Tyr^16-Glu^22-GLP-1 (7-37) OH], 4.3 relative to Val^8-GLP-1 (7-37) OH.

With HVEGTFTSDVSSYKEGQAAKEFIAWLVKGRG-OH [Val^8-Lys^20-GLP-1 (7-37) OH], the “GLP-1 receptor activation relative to Val^8-GLP-1 (7-37) OH” value is 0.7 relative to Val^8-GLP-1 (7-37) OH.

Regarding HVEGTFTSDLSSYLEEQAAKEFIAWLVKGRG-OH [Val^8-Leu^16-Glu^22-GLP-1 (7-37) OH], the “GLP-1 receptor activation relative to Val^8-GLP-1 (7-37) OH” value is 4.3 relative to Val^8-GLP-1 (7-37) OH. In the case of HVEGTFTSDVSSYLEEQALKEFIAWLVKGRG-OH [Val^8-Glu^22-Leu^25-GLP-1 (7-37) OH] it was 2.8 relative to Val^8-GLP-1 (7-37) OH; in that of HVEGTFTSDASSYLEGQAAKEFIAWLVKGRG-OH [Val^8-Ala^16-GLP-1 (7-37) OH], 0.25 relative to Val^8-GLP-1 (7-37) OH. In the case of HVEGTFTSDVSSYLEDQAAKEFIAWLVKGRG-OH [Val^8-Asp^22-GLP-1 (7-37) OH], the “GLP-1 receptor activation relative to Val^8-GLP-1 (7-37) OH” value was 0.9 relative to Val^8-GLP-1 (7-37) OH. In the case of HVEGTFTSDVSSYLEKQAAKEFIAWLVKGRG-OH [Val^8-Lys^22-GLP-1 (7-37) OH] it was 1.3 relative to Val^8-GLP-1 (7-37) OH; in that of HGEGTFTSDVSSYLEGQAAKEFIAWLVKGRG-OH [Gly^8-GLP-1 (7-37) OH], 1.7 relative to Val^8-GLP-1 (7-37) OH. For HVEGTFTSDVSKYLEEQAAKEFIAWLVKGRG-OH [Val^8-Lys^18-Glu^22-GLP-1 (7-37) OH], the “GLP-1 receptor activation relative to Val^8-GLP-1 (7-37) OH” value was 2.5 relative to Val^8-GLP-1 (7-37) OH.

Consider HVEGTFTSDVSSYLEEQAIKEFIAWLVKGRG-OH [Val^8-Glu^22-Ile^25-GLP-1 (7-37) OH], for which the “GLP-1 receptor activation relative to Val^8-GLP-1 (7-37) OH” value is 3.1 relative to Val^8-GLP-1 (7-37) OH.

As for HVEGTFTSDVSSWLEEQAAKEFIAWLVKGRG-OH [Val^8-Trp^19-Glu^22-GLP-1 (7-37) OH], the “GLP-1 receptor activation relative to Val^8-GLP-1 (7-37) OH” value is 3.2 relative to Val^8-GLP-1 (7-37) OH.

As to HVEGTFTSDWSSYLEEQAVKEFIAWLIKGRG-OH [Val^8-Trp^16-Glu^22-Val^25-Ile^33-GLP-1 (7-37) OH], the “GLP-1 receptor activation relative to Val^8-GLP-1 (7-37) OH” value was 5 relative to Val^8-GLP-1 (7-37) OH.

As for HVEGTFTSDESSYLEGQAAKEFIAWLVKGRG-OH [Val^8-Glu^16-GLP-1 (7-37) OH], the “GLP-1 receptor activation relative to Val^8-GLP-1 (7-37) OH” value was 0.1 relative to Val^8-GLP-1 (7-37) OH. HVEGTFTSDFSSYLEEQAAKEFIAWLVKGRG-OH [Val^8-Phe^16-Glu^22-GLP-1 (7-37) OH]: the “GLP-1 receptor activation relative to Val^8-GLP-1 (7-37) OH” value is 2.3 relative to Val^8-GLP-1 (7-37) OH.
